Biological target: RorSlfn5, Schlafen nuclease fused to an Ig-like domain, from Raoultella ornithinolytica (Raoultella ornithinolytica)
Experiment: SEC-MALS

RorSlfn5, Schlafen nuclease fused to an Ig-like domain, from Raoultella ornithinolytica (enzyme)
stoichiometry N: 6
